Measurements reported in patent US20260256927A1 (Merck Sharp & Dohme, published 2026).

T1: IL-2Rα-Fc (Acro Biosystems, catalog #ILA-H5251) (UniProt P01589 22-217, limits assumed)
T1 construct: Bought reagent; Captured on an anti-Fc chip as SPR ligand; also called CD25; not shown: Fc part of the bought fusion
T1 sequence (looked up): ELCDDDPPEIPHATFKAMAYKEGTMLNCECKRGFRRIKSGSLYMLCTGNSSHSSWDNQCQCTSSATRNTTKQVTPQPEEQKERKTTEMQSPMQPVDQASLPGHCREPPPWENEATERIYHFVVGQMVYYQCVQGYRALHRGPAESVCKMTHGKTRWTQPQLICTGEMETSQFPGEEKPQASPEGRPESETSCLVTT

T2: IL-2Rβ-Fc (Acro Biosystems, catalog #ILB-H5253) (UniProt P14784 27-239, limits assumed)
T2 construct: Bought reagent; Captured on an anti-Fc chip as SPR ligand; also called CD122; not shown: Fc part of the bought fusion
T2 sequence (looked up): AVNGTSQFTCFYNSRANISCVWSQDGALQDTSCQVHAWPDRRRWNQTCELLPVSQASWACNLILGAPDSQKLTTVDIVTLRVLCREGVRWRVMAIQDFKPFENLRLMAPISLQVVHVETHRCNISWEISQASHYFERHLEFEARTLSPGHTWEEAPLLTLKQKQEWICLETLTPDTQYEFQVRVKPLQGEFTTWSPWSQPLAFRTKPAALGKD


How the values were obtained:
[1] = molecular target: T1, IL-2Rα-Fc (Acro Biosystems, catalog …); assay: SPR, kinetic binding to IL-2 receptor
[2] = molecular target: T2, IL-2Rβ-Fc (Acro Biosystems, catalog …); assay: SPR, kinetic binding to IL-2 receptor
[3] = molecular target: T1, IL-2Rα-Fc (Acro Biosystems, catalog …); assay: SPR (Biacore T200), kinetic; receptor-Fc captured on anti-Fc CM5 chip, IL-2 variant as analyte
Description: (§1) Anti-Fc polyclonal antibodies were immobilized onto a CM5 chip (GE Life Sciences) using amine coupling chemistry (from Amine Coupling Kit, GE Life Sciences). The immobilization steps were carried out at a flow rate of 25 μL/minute in 1×HBS-EP+ buffer (GE Life Sciences; 10× Stock diluted before use). The sensor surfaces were activated for 7 minutes with a mixture of NHS (0.05 M) and EDC (0.2 M). The anti-Fc antibodies were injected over all four flow cells at a concentration of 25 μg/mL in 10 mM sodium acetate, pH 4.5, for seven minutes. Ethanolamine (1 M, pH 8.5) was injected for seven minutes to block any remaining activated groups.
(§2) Kinetic binding experiments were performed at 25° C. using 1×HBS-EP+ with 0.05% BSA buffer. IL-2Rα-Fc or IL-2Rβ-Fc (Acro Biosystems, catalog #ILA-H5251, ILB-H5253) was injected over the anti-Fc surface at concentrations of 3-10 μg/mL for 12 seconds at a flow rate of 10 μL/minute on flow cells 2, 3 and 4, followed by a buffer wash for 30 seconds at the same flow rate. Kinetic characterization of conjugated or unconjugated aldesleukin or variants was carried out in a range of concentrations from 1 nM-10 μM and one injection of no antigen. After capturing ligand (IL-2Rα-Fc or IL-2Rβ-Fc) on the anti-Fc surface, the analyte (IL-2 variant) was bound for 60 seconds, followed by a 180 second dissociation phase at a flow rate of 50 μL/min. Between each ligand capture and analyte binding cycle, regeneration was carried out using two injections of 10 mM Glycine pH 1.5 for 30 seconds at 30 μL/minute, followed by a 30 second buffer wash step.

[4] = molecular target: T2, IL-2Rβ-Fc (Acro Biosystems, catalog …); assay: as above
Description: as §1, §2

[5] = molecular target: T1, IL-2Rα-Fc (Acro Biosystems, catalog …); assay: SPR, receptor-Fc captured on anti-Fc chip

Binder | Kd [2] | Kd [3] | further results
Ald-6HIS_R80pAMF (SP9968), unconjugated (ligand, X81 = pAMF (R80 in SEQ ID NO: 2/3 numbering), also called Aldesleukin-6His R80TAG p-azidomethyl-L-phenylalanine) MPTSSSTKKTQLQLEHLLLDLQMILNGINNYKNPKLTRMLTFKFYMPKKATELKHLQCLEEELKPLEEVLNLAQSKNFHLFPRDLISNINVIVLELKGSETTFMCEYADETATIVEFLNRWITFSQSIISTLTGGSHHHHHH | – | 20 nM | Kd [4]: 400 nM
Ald-6HIS_S4pAMF (SP9954) conjugated to DBCO 2 x 10 kDa PEG (PEG2) (ligand, X5 = pAMF (S4) conjugated to branched 20 kDa PEG (DBCO 2 x 10 kDa PEG, PEG2), also called SP9954 PEG2 conjugated) MPTSFSTKKTQLQLEHLLLDLQMILNGINNYKNPKLTRMLTFKFYMPKKATELKHLQCLEEELKPLEEVLNLAQSKNFHLRPRDLISNINVIVLELKGSETTFMCEYADETATIVEFLNRWITFSQSIISTLTGGSHHHHHH | – | 100 nM | –
SP10725 (Aldesleukin-6His_S4/Y30/K34/R80 pAMF conjugated to SC579) (ligand, X5, X31, X35, X81 = pAMF (S4, Y30, K34, R80), each conjugated to SC579 (releasable 20 kDa mPEG Fmoc-DBCO linker), also called SP10725 PEG conjugate) MPTSFSTKKTQLQLEHLLLDLQMILNGINNFKNPFLTRMLTFKFYMPKKATELKHLQCLEEELKPLEEVLNLAQSKNFHLFPRDLISNINVIVLELKGSETTFMCEYADETATIVEFLNRWITFSQSIISTLTGGSHHHHHH | – | – | binding result [5]: no binding
Ald-6HIS_S4pAMF (SP9954), unconjugated (ligand, X5 = p-azidomethyl-L-phenylalanine (pAMF; S4 in SEQ ID NO: 2/3 numbering), also called Aldesleukin-6His S4TAG p-azidomethyl-L-phenylalanine) MPTSFSTKKTQLQLEHLLLDLQMILNGINNYKNPKLTRMLTFKFYMPKKATELKHLQCLEEELKPLEEVLNLAQSKNFHLRPRDLISNINVIVLELKGSETTFMCEYADETATIVEFLNRWITFSQSIISTLTGGSHHHHHH | – | 8 nM | Kd [4]: 300 nM
Aldesleukin-6His_S4/K34/V114 pAMF (SP10683) conjugated to SC547 stump (ligand, X5, X35, X115 = pAMF (S4, K34, V114), each conjugated to SC547 (conjugation stump), also called SP10723 stump conjugate) MPTSFSTKKTQLQLEHLLLDLQMILNGINNYKNPFLTRMLTFKFYMPKKATELKHLQCLEEELKPLEEVLNLAQSKNFHLRPRDLISNINVIVLELKGSETTFMCEYADETATIFEFLNRWITFSQSIISTLTGGSHHHHHH | 2000 nM | – | Kd [1]: 300 nM
Ald-6HIS_V114pAMF (SP9970) conjugated to DBCO 2 x 10 kDa PEG (PEG2) (ligand, X115 = pAMF (V114) conjugated to branched 20 kDa PEG (DBCO 2 x 10 kDa PEG, PEG2), also called SP9970 PEG2 conjugated) MPTSSSTKKTQLQLEHLLLDLQMILNGINNYKNPKLTRMLTFKFYMPKKATELKHLQCLEEELKPLEEVLNLAQSKNFHLRPRDLISNINVIVLELKGSETTFMCEYADETATIFEFLNRWITFSQSIISTLTGGSHHHHHH | – | 500 nM | –
SP10724 (Aldesleukin-6His_S4/Y30/K34 pAMF F41K conjugated to SC579) (ligand, X5, X31, X35 = pAMF (S4, Y30, K34), each conjugated to SC579 (releasable 20 kDa mPEG Fmoc-DBCO linker), also called SP10724 PEG conjugate) MPTSFSTKKTQLQLEHLLLDLQMILNGINNFKNPFLTRMLTKKFYMPKKATELKHLQCLEEELKPLEEVLNLAQSKNFHLRPRDLISNINVIVLELKGSETTFMCEYADETATIVEFLNRWITFSQSIISTLTGGSHHHHHH | – | – | binding result [5]: no binding

Continued, in another order:

Kd [2] | Kd [3] | Binder | further results
600 nM | – | Aldesleukin-6His_S4/Y30/K34/Q73 pAMF (SP10686) conjugated to SC547 stump (ligand, X5, X31, X35, X74 = pAMF (S4, Y30, K34, Q73), each conjugated to SC547 (conjugation stump), also called SP10726 stump conjugate) MPTSFSTKKTQLQLEHLLLDLQMILNGINNFKNPFLTRMLTFKFYMPKKATELKHLQCLEEELKPLEEVLNLAFSKNFHLRPRDLISNINVIVLELKGSETTFMCEYADETATIVEFLNRWITFSQSIISTLTGGSHHHHHH | Kd [1]: 30 nM
3000 nM | – | Aldesleukin-6His_S4/Y30/K34 pAMF F41K (SP10684) conjugated to SC547 stump (ligand, X5, X31, X35 = pAMF (S4, Y30, K34), each conjugated to SC547 (conjugation stump), also called SP10724 stump conjugate) MPTSFSTKKTQLQLEHLLLDLQMILNGINNFKNPFLTRMLTKKFYMPKKATELKHLQCLEEELKPLEEVLNLAQSKNFHLRPRDLISNINVIVLELKGSETTFMCEYADETATIVEFLNRWITFSQSIISTLTGGSHHHHHH | –
2000 nM | – | Aldesleukin-6His_S4/Y30/K34/R80 pAMF F41K (SP10688) conjugated to SC547 stump (ligand, X5, X31, X35, X81 = pAMF (S4, Y30, K34, R80), each conjugated to SC547 (conjugation stump), also called SP10728 stump conjugate) MPTSFSTKKTQLQLEHLLLDLQMILNGINNFKNPFLTRMLTKKFYMPKKATELKHLQCLEEELKPLEEVLNLAQSKNFHLFPRDLISNINVIVLELKGSETTFMCEYADETATIVEFLNRWITFSQSIISTLTGGSHHHHHH | –
– | 50 nM | Ald-6HIS_V114pAMF (SP9970), unconjugated (ligand, X115 = pAMF (V114 in SEQ ID NO: 2/3 numbering), also called Aldesleukin-6His V114TAG p-azidomethyl-L-phenylalanine) MPTSSSTKKTQLQLEHLLLDLQMILNGINNYKNPKLTRMLTFKFYMPKKATELKHLQCLEEELKPLEEVLNLAQSKNFHLRPRDLISNINVIVLELKGSETTFMCEYADETATIFEFLNRWITFSQSIISTLTGGSHHHHHH | Kd [4]: 300 nM
